In the supplement of paper PMC10567573:

B1: TMEM106C (parent)
chain: SEQLVNFTGKAEMGGPFSYVYFFC

Variants of: B1
Assay: protein stability index of a GFP-peptide fusion (GPS, HEK-293T) (PSI 1-6); higher = more stable
Details: c terminus: a fixed tail appended
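Note: lentivirally expressed fusions sorted by FACS into six bins by GFP to DsRed ratio, PSI derived from sequencing read proportions per bin multiplied by bin number.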

Protein stability index: each site, then its substitutions
F23: P 1.51 | Q 2.9 | R 4.48 | S 3.45 | T 2.05 | V 3.22 | W 3.85 | Y 3.3
C24: A 3.11 | D 2.36 | E 2.29 | F 3.13 | G 2.53 | H 3.25 | I 3.26 | K 2.07 | M 2.82 | N 1.89 | P 1.73 | Q 1.54 | R 2.09 | S 2.23 | T 3.96 | V 3.49 | W 3.35 | Y 3.05
